41 sequences from the nanobody polyreactivity screen of Harvey et al. (2022) can be followed below.

The nature of this data set: yeast display, Sf9 membrane polyspecificity reagent, FACS + sequencing; frameworks hold sequencing errors. Summed up: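 In a synthetic yeast display library (Saccharomyces cerevisiae BJ5465), nanobody expression was induced with galactose for 36–48 hours. FACS gates were set low and high (top ~1%) using anti-HA fluorescence for expression and streptavidin fluorescence for binding of the Sf9 membrane reagent. Each polyreactivity label is drawn from the gate of origin.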
As for “QVQLVESGGGLVQAGGSLRISCAASGIIFYTYVMGWYRQAPGKEREFVAGISTSGGRTDYADSVKGRFTISRDNAKNTVYLQMNSLKPEDTAVYYCNADYWQWYSYWYDYWGQGTQVTVSS”, the “polyreactivity (PSR sort gate)” value is reported as “high polyreactivity”.

Consider “QVQLVESGGGLVQAGGSLRISCAASGINFSVNAMGWYRQAPGKERELVAAITYSGGSTYYADSVKGRFTISRDNAKNTVYLQMNSLKPEDTAVYYCAAETYSSGEWYDYWGQGTQVTVSS”, for which the “polyreactivity (PSR sort gate)” value was “high polyreactivity”.

As for “QVQLVESGGGLVQAGGSLRISCAASGITFVYYDMAWYRQAPGKDSELVAAISGGGSTNYADSVKGRFTISRDNAKNTVYLQRKSLKPEDTAVYYCNAELYYGDEGDSWGQGTLVTVSS”, the “polyreactivity (PSR sort gate)” value is “low polyreactivity”.

Consider “QVQLVESGGGLVQAGGSLRISCAASGITFYRYAMGWYRQAPGKEREFVAAINYGGSSTRYADSVKGRFTISRDNAKITVYLQMNSLKPEDTAVYYCAKVELARVEYDYWGQGTQVTVSS”, for which the “polyreactivity (PSR sort gate)” value is on record as “low polyreactivity”.

For the sequence “QVQLVESGGGLVQAGGSLRISCAASGLTFFRNAIGWYRQATGKERELVATITSTSSTNYADSVKVRFTISRDNSKNTVYLQMNSLKPEDTAVYYCAARTVGRKAGFDYWGQGTQVTVSS”, the “polyreactivity (PSR sort gate)” value is “high polyreactivity”.

Regarding “QVQLVESGGGLVQAGGSLRISCAASGLTFQYNAMGWYRQAPGKERELVAAISSSGGSTYYADSVKGRFTISRDNAKNTVYLQMNSLKPEDTAVYYCNAYSQSWNFYGDGDYWVQGTQVTVSS”, the “polyreactivity (PSR sort gate)” value is “low polyreactivity”.

Consider “QVQLVESGGGLVQAGGSLRISCAASGNTVNDYTMGWYRQEPGKERELVAAIRSGGRTYYADSVKGRFTISRDNAKNTVYLQMNSLKPEDTAVYYCAALAVTYRYDYWGQGTQVTVSS”, for which the “polyreactivity (PSR sort gate)” value was “high polyreactivity”.

“QVQLVESGGGLVQAGGSLRISCAASGRIFARNAMGSYRQAPGKERELVATIRVGGGSTYYADSVTGRFTISRDNAKNTVYLQMNSLKPEDTSVYYCAVRQLYSYPGDRRGYYWGQGTQVTVSS”: the “polyreactivity (PSR sort gate)” value was “low polyreactivity”.

Consider “QVQLVESGGGLVQAGGSLRISCAASGRIFRVNGMGWSRQEPGKESELVAAIRRSGGSTYYADSVKGRFTISRDYAKKSVYLQMNSLKPEDTAVYFCAAAVRQSSYTRYDSWGQGTQVTVSS”, for which the “polyreactivity (PSR sort gate)” value was “high polyreactivity”.

In the case of “QVQLVESGGGLVQAGGSLRISCAASGRIFSGYAMGWYRQAPGKERELVAAITSGGSTNYADSVKGRFTISRDNAKNTVYLQMNSLKPEDTAVYYCAADSREVSTTAYYYWGQGTQVTVSS”, the “polyreactivity (PSR sort gate)” value is “low polyreactivity”.

As for “QVQLVESGGGLVQAGGSLRISCAASGRILARNAMGWYRQAPGKERDLVATITWTDGSTYYADSVKGRFTISRDNAKNTVYLQMNSLKPEDTAVYYCDADLPGYWLPTVPKNYGDYWGQGTQVTVSS”, the “polyreactivity (PSR sort gate)” value was “low polyreactivity”.

For the sequence “QVQLVESGGGLVQAGGSLRISCAASGRTFARYAMGWYRQAPGKERELVAAISRSGSTYYADSVKGRFTISRDNAKNTVYLQMNSLKPEDTAVYFCAKDTRFAGSYKYYYWGQGTQVTVSS”, the “polyreactivity (PSR sort gate)” value was “high polyreactivity”.

Consider “QVQLVESGGGLVQAGGSLRISCAASGRTFGRYAMEWYRQAPGKERELVAAISWSGGSTYYADSVKGRFTISRDNAKNTVYLQMNSLKPEATAVYYCAAVTTDGVYAFDYWGQGTQVTVSS”, for which the “polyreactivity (PSR sort gate)” value is “low polyreactivity”.

Consider “QVQLVESGGGLVQAGGSLRISCAASGRTFLSNAMGWYRQAPGKERELVAAISNGDNTYYADSVKGRFTISRDNAKNTVYLQMNSLKPEDTAVYYCAADQYWSWIYYPVVEYDYWGQGTQVTVSS”, for which the “polyreactivity (PSR sort gate)” value was “low polyreactivity”.

With “QVQLVESGGGLVQAGGSLRISCAASGRTFWYYAKGWDRQAPGKEREFVAAISWSGGSTYYADSVKGRFTISRDNAKNTVYLQMNSLKPEDTAVSYCAADRYDSSQFYYWGQGTQVTVSS”, the “polyreactivity (PSR sort gate)” value is “low polyreactivity”.

As to “QVQLVESGGGLVQAGGSLRISCAASGRTFYSYAMGWYRQAPGKERELVAAITWRASTYYADSVKGRFTISRDNAKNTVYLQMNSLKPEDTAVYYCAVRDYRPRYYTFLYNSPYDYWGQGTQVTVSS”, the “polyreactivity (PSR sort gate)” value is “high polyreactivity”.

For “QVQLVESGGGLVQAGGSLRISCAASGRTFYYYAMGWYRQAPGKEREFVARITSSGGSTSYADSVKGRFTISRDNAKNTVYLQMNSLKPEDTAVYYFNAVSTYTSDDYDYWGQGSQVTVSS”, the “polyreactivity (PSR sort gate)” value is on record as “high polyreactivity”.

Take “QVQLVESGGGLVQAGGSLRISCAASGRTFYYYVMGWYRQAPGKERELVAAISRGGRTYYADSVKGRFTISRDYAKNTVYLQMNSLKPEDTAVYSCNAVPRKSRHRYDYWGQGTQVTVSS”: the “polyreactivity (PSR sort gate)” value is recorded as “high polyreactivity”.

“QVQLVESGGGLVQAGGSLRISCAASGRTLFNKARGRYRQAPGKERELVAAINWSGTSTYYADSVKGRFTISRDNAKNTVYLQMNSLKPEDTAVYYCAARYSTVSTRRKPYNYWGQGTQVTVSS”: the “polyreactivity (PSR sort gate)” value is “high polyreactivity”.

As to “QVQLVESGGGLVQAGGSLRISCAASGRTLGAYALGWSRQAPGKERELVAVISRRGGSTYYADSVKGRFTISRVNAKNTVYLQMNSLKPEDSAVYYCARTTLLYRTLSPGEYWGQGTQVTVSS”, the “polyreactivity (PSR sort gate)” value is reported as “high polyreactivity”.

In the case of “QVQLVESGGGLVQAGGSLRISCAASGSICYYYGMGWYRQAPGKERELVAGISSRGGRTYYADSVKGRFTISRDNAKNTVYLQMNSLKPEDTAVYYGAADRYYYAYRYDPSGYWGQGTQVTVSS”, the “polyreactivity (PSR sort gate)” value is reported as “low polyreactivity”.

Turning to “QVQLVESGGGLVQAGGSLRISCAASGSIFASNAMGWYRQAPGKEREFVAAITWRTDRTYYADSVKGRFTISRDNAKNTVYLQMNSLKPEDTAVYYCAADTWFYRFYYWGQGTQVTVSS”, the “polyreactivity (PSR sort gate)” value is listed as “high polyreactivity”.

On to “QVQLVESGGGLVQAGGSLRISCAASGSIFDLNPMGGYRQAPGKERELVAAISSGGGTYYADSVKGRFTISRDNAKNTVYLQMNRLIPEDTAVYYCIRVTRWTSNYWGQCTQVTVSS”, for which the “polyreactivity (PSR sort gate)” value is on record as “high polyreactivity”.

On to “QVQLVESGGGLVQAGGSLRISCAASGSIFDRNAMGWYRQAPGKERELVAGISSGGGTNYADSVKGRFTISRDNAKNTVYFQMNSLKPEDTAVYYCAVYRYLSNRVKYDYWGQGTQVTVSS”, for which the “polyreactivity (PSR sort gate)” value was “low polyreactivity”.

For “QVQLVESGGGLVQAGGSLRISCAASGSIFGYYVMGWYRQAPGKERELVAAITGSVGDTYYADSVKGRFTISRDNAKNTVYLQMNSLKPVDTAVYYCNASNISPFRLLRSPMDYCGQGTQVTVSS”, the “polyreactivity (PSR sort gate)” value is reported as “low polyreactivity”.

For the sequence “QVQLVESGGGLVQAGGSLRISCAASGSIFLIFAMGWYRQSPGKERELVAAITQRGGSTYYADSVKGRFTISRDNAKNTVYFQMDSLKPEDTAVYYCNARRYVLRYNRFYYWGQGTQVTVSS”, the “polyreactivity (PSR sort gate)” value is recorded as “high polyreactivity”.

For “QVQLVESGGGLVQAGGSLRISCAASGSIFWANAMGWYRQAPWKERELVAAISSSGGRTYYADSVKGRFTISRDNAKNTVYLQMNSLKPEDSAVYDCNKLRLAYYEQGDYWGQGTQVNVSS”, the “polyreactivity (PSR sort gate)” value is given as “high polyreactivity”.

For the sequence “QVQLVESGGGLVQAGGSLRISCAASGSIFYGNAMGWYRQAPGKERELVAAISKRGGSTYYADSVKGRFTISRDNAKNTVYLQMNSLKPEDTAVYYCAKATAGHTEYYYWGQGTQVTVSS”, the “polyreactivity (PSR sort gate)” value is “high polyreactivity”.

On to “QVQLVESGGGLVQAGGSLRISCAASGSIFYQYAMGWYRQAPGKERELVAGITWSGGSTYYADSVKGRFTISRDNAKNTVYLQMNSLKPEDSAVYYCARRYRGGYFWGQGTQVTVSS”, for which the “polyreactivity (PSR sort gate)” value is “high polyreactivity”.

“QVQLVESGGGLVQAGGSLRISCAASGSILGLYAMGWYRQAPGKERELVAAITYRGGRTDYADSVKGRFTISRDNAKNTVYLQMNSLKPEDTAVYYCAAGYLPRPRYSTSYLYYYWGQGTQVTVSS”: the “polyreactivity (PSR sort gate)” value is listed as “high polyreactivity”.

As for “QVQLVESGGGLVQAGGSLRISCAASGSISSDNVMGWYRQAPGKERELVAAISSGTSTHYADSVKGSFTISRDNAKNTVYLQMNSLNQEDTAVYYCAAYFYRQYLYFLYEYDYWGQGTQVTVSS”, the “polyreactivity (PSR sort gate)” value is “low polyreactivity”.

For “QVQLVESGGGLVQAGGSLRISCAASGSIVYPYAMGWYRQAPGKERELVAAISYSGGSTYYADSVKGSFTISRDNAKNTVYLQMNSLKPEDTAVYYCNVYAGQYGMNYWGQGTQVTVSS”, the “polyreactivity (PSR sort gate)” value is on record as “high polyreactivity”.

In the case of “QVQLVESGGGLVQAGGSLRISCAASGSNFTRYAMGWYRQAPGKERELVAAISNRGGRTYYADSVKGRFTISRDNAKNTVYLQMNSLKPEDTGVYYCNAATTRRIPQSDNYWGQGTQVTVSS”, the “polyreactivity (PSR sort gate)” value was “high polyreactivity”.

As for “QVQLVESGGGLVQAGGSLRISCAASGSPIWNYVMRWYRKAPGKVRDLVAAISIVGSTYYADSVKGRFTSSRDNAKNTVYFELNILKPEDTAVNYCNAGYFGGSNASKVRLSYDHWGQGTDVTVSS”, the “polyreactivity (PSR sort gate)” value is recorded as “low polyreactivity”.

Regarding “QVQLVESGGGLVQAGGSLRISCAASGSTFEVNAMGWYRQAPGKERELVAAISYRGTSTYYADSVKGRFTISRDNAKNTVYLQMNSLKPEDNAVYYCAAEWYDWYWEYDSWGQGTQVTVSS”, the “polyreactivity (PSR sort gate)” value was “high polyreactivity”.

In the case of “QVQLVESGGGLVQAGGSLRISCAASGSTFEYYAMGWYRQAPGKERELVATISIDGRTNYADSVKGRFTISRDNAKKTVYLQMNSLKPEDTAVYYCAARPYWRHRYDYWGQGTQVTVSS”, the “polyreactivity (PSR sort gate)” value is “low polyreactivity”.

As for “QVQLVESGGGLVQAGGSLRISCAASGSTFFYYSMGWYRQAPGKEWEFVAHITSSDASTHYADSVKGRFTISRDNAKNTVNLQMNSQQPEDTAVYYCAADRYCGQANYYWGQGTQVTVSS”, the “polyreactivity (PSR sort gate)” value is recorded as “low polyreactivity”.

On to “QVQLVESGGGLVQAGGSLRISCAASGSTFGWYTMGWYRQAPGKERELVAAISQGGGRTRYADSVKGRFTISRDNAKNTVYLQMNSLKPEDTAVYYCAATYYHRPYISNYGYWGQGTQVTVSS”, for which the “polyreactivity (PSR sort gate)” value was “high polyreactivity”.

Regarding “QVQLVESGGGLVQAGGSLRISCAASGSTFRLYAMGWYRQAPGKERELVAAISSNGVRTYYADSVKGRFTISRDNAKNTVYLQMNSLKPEDTAVYYCAARVYPAYPRGYDYWGQGTQVTVSS”, the “polyreactivity (PSR sort gate)” value was “high polyreactivity”.

“QVQLVESGGGLVQAGGSLRISCAASGSTFSGNSMGRYRPAPGKERELFAAINSVRTYYADSVKGRFTISRDNAKNTVYLQMNSLIPEDTAVFSCAARQGYSSRFPAKGYYWGQGTQVTVSS”: the “polyreactivity (PSR sort gate)” value is “high polyreactivity”.

On to “QVQLVESGGGLVQAGGSLRISCAASGSTFSQYTMGWYRQAPGKERELVAAITWSGGRTYYADSVKGRFTISRDNAKNTVYLQMNSLKPEDTAVYYCNRDISGSSGGELDYWGQGTQVTVSS”, for which the “polyreactivity (PSR sort gate)” value was “low polyreactivity”.
